Assay results: US20170002055A1, “Novel peptides and combination of peptides for use in immunotherapy against ovarian cancer and other cancers” (immatics biotechnologies GmbH, priority 2015, published 2017)

Target: HLA-A*02:01 (Homo sapiens, UniProt P04439, D140Y/D185E/D98H/E176V/E277Q/G131W/G231S/I119V/I121R/I166T/I218V/L300P/L318F/N151K/N90K/P208A/P217A/Q86G/Q94H/R138H/R169H/T345S)
Assay: MHC binding assay (UV-ligand exchange, β2m ELISA, peptide exchange yield)
Details: MHC class I binding score; binding to HLA-A*02:01 ranged by peptide exchange yield (UV-ligand exchange, β2m ELISA)
How it was run: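 Peptide–HLA-A*02:01 complexes were formed by UV-mediated exchange of a UV-cleavable ligand for the test peptide. Exchange yield was measured by capturing complexes on streptavidin, detecting with HRP anti-β2m antibody (1 h, 37°C) and reading TMB absorbance at 450 nm.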

| Peptide exchange | Substance |
| --- | --- |
| “++++” (≧75% = ++++) | 100 (YLLSTNAQL; listed as Homo sapiens) [compound 100] |
| “+++” (≧50 = +++) | 71 (GILARIASV; listed as Homo sapiens) [compound 71] |
| “+++” (≧50 = +++) | 467 (FLAKDFNFL; listed as Homo sapiens) [compound 467] |
| “+++” (≧50 = +++) | 441 (ALLENPKMEL; listed as Homo sapiens) [compound 441] |
| “+++” (≧50 = +++) | 474 (YLDPALELGPRNV; listed as Homo sapiens) [compound 474] |
| “+++” (≧50 = +++) | 202 (ALLDQQGSRWTL; listed as Homo sapiens) [compound 202] |
| “+++” (≧50 = +++) | 506 (KLLGKVETA; listed as Homo sapiens) [compound 506] |
| “+++” (≧50 = +++) | 98 (LIIDQADIYL; listed as Homo sapiens) [compound 98] |
| “++” (≧20% = ++) | 523 (YQIPRTFTL; listed as Homo sapiens) [compound 523] |
| “+++” (≧50 = +++) | 558 (GLLENIPRV; listed as Homo sapiens) [compound 558] |
| “+++” (≧50 = +++) | 170 (RLQETLSAA; listed as Homo sapiens) [compound 170] |
| “+++” (≧50 = +++) | 35 (KINDTIYEV; listed as Homo sapiens) [compound 35] |
| “++” (≧20% = ++) | 212 (ALWDQDNLSV; listed as Homo sapiens) [compound 212] |
| “+++” (≧50 = +++) | 554 (LLMPSSEDLLL; listed as Homo sapiens) [compound 554] |
| “++” (≧20% = ++) | 227 (ALMNTLLYL; listed as Homo sapiens) [compound 227] |
| “+++” (≧50 = +++) | 549 (AMLENASDIKL; listed as Homo sapiens) [compound 549] |

| Peptide exchange | Substance |
| --- | --- |
| “++” (≧20% = ++) | 81 (FLFSQLQYL; listed as Homo sapiens) [compound 81] |
| “+++” (≧50 = +++) | 299 (YLLETSGNL; listed as Homo sapiens) [compound 299] |
| “+” (≧10% = +) | 520 (LAVHPSGVAL; listed as Homo sapiens) [compound 520] |
| “++” (≧20% = ++) | 176 (YLMEGSYNKVFL; listed as Homo sapiens) [compound 176] |
| “+++” (≧50 = +++) | 331 (KVDTVWVNV; listed as Homo sapiens) [compound 331] |
| “++” (≧20% = ++) | 133 (KVLSNIHTV; listed as Homo sapiens) [compound 133] |
| “+++” (≧50 = +++) | 359 (YLLPESVDL; listed as Homo sapiens) [compound 359] |
| “++” (≧20% = ++) | 234 (ALMEDTGRQML; listed as Homo sapiens) [compound 234] |
| “++” (≧20% = ++) | 84 (VTFGEKLLGV; listed as Homo sapiens) [compound 84] |
| “+++” (≧50 = +++) | 608 (SLLSVSHAL; listed as Homo sapiens) [compound 608] |
| “+++” (≧50 = +++) | 201 (RLVDYLEGI; listed as Homo sapiens) [compound 201] |
| “++” (≧20% = ++) | 459 (ALITEVVRL; listed as Homo sapiens) [compound 459] |
| “+++” (≧50 = +++) | 509 (FLFDTKPLIV; listed as Homo sapiens) [compound 509] |
| “++++” (≧75% = ++++) | 289 (VLLEIEDLQV; listed as Homo sapiens) [compound 289] |
| “+++” (≧50 = +++) | 69 (FQLDPSSGVLVTV; listed as Homo sapiens) [compound 69] |
| “+++” (≧50 = +++) | 635 (SLDSTLHAV; listed as Homo sapiens) [compound 635] |
